Test results from paper PMC11878764, “MaEIL4-MaMADS36-MaACS7 module transcriptionally regulates ethylene biosynthesis during banana fruit ripening”.

Target: MaMADS36 (Musa spp. (banana), UniProt A0ACE1XRG1 54-288)
Assay: EMSA; Not given in material; EMSA according to Liu et al. [22]
Settings: protein: recombinant; chain copies: 2

Chain of MaMADS36 (A0ACE1XRG1 entry or part of it): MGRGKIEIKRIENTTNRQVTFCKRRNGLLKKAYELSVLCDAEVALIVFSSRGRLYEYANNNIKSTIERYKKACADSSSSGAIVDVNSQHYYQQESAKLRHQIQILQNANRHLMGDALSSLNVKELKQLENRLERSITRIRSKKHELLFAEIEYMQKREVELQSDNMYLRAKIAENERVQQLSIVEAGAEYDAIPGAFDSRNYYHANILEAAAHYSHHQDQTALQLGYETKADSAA

B1: MaACS7 promoter C(A/T)rG probe (dsDNA)
DNA 1: GTTTCTTTTTTGGT
DNA 2: ACCAAAAAAGAAAC
B1: binds.
